Measurements: PMC4542545

Biological target: taxol stabilized microtubules assembled from MAP-free tubulin from bovine brain (bovine) (UniProt Q6B856)
Assay: co-sedimentation; 1.5 μM GFP-tagged TPPP/p25 with increasing concentrations of taxol stabilized MTs, 15 min at 37 °C, centrifugation; GFP fluorescence of pellets and supernatants; apparent Kd (likely a composite of MT binding and TPPP/p25 dimerization or oligomerization)

In order of falling Kd:
1. GFP-tagged TPPP/p25 ΔC(158) (from UniProt O94811 1-157) (domain or fragment)  1750 nM
2. GFP-tagged full-length TPPP/p25 (from UniProt O94811 1-219) (natural protein)  1440 nM
3. GFP-tagged TPPP/p25 ΔN(49) (from UniProt O94811 50-219) (domain or fragment)  860 nM
